Measurements published in patent US20190375786A1, “STABLE PEPTIDES AND METHODS OF USE THEREOF” (Fred Hutchinson Cancer Research Center, priority 2016, published 2019).

Legend:
[1] = Combined resistance grouping of hitchin peptides (FIG. 27, from Table 2 data); type: physicochemical; settings: FIG. 27 grouping of hitchin peptides
Description: As shown by the data in TABLE 2, the tested peptides of the present disclosure show a range of resistance to proteases, reduction, and high temperature. The peptides were classified as high, medium, or low for each condition. […] For example, after a peptide is treated at 100° C., if the HPLC peak of the peptide is mostly absent as compared to HPLC peak of the peptide not treated at 100° C., then the peptide is classified as low or having low resistance to 100° C. After a peptide is treated with reducing conditions, if there is no or very minimal HPLC peak that overlaps with the HPLC peak of the peptide not treated with reducing conditions, then the peptide is classified as low or having low resistance to reducing conditions.
The peptides with the highest resistance data were further analyzed. […] The six peptides that were further tested were peptides comprising the sequences of SEQ ID NO: 27, SEQ ID NO: 24, SEQ ID NO: 6, SEQ ID NO: 10, SEQ ID NO: 12, and SEQ ID NO: 57, which were all hitchins. […] FIG. 27C is a sequence analysis of SEQ ID NO: 27, SEQ ID NO: 24, SEQ ID NO: 6, SEQ ID NO: 10, SEQ ID NO: 12, and SEQ ID NO: 57 from FIG. 27B. FIG. 27C identifies which amino acids are present at each position in SEQ ID NO: 27, SEQ ID NO: 24, SEQ ID NO: 6, SEQ ID NO: 10, SEQ ID NO: 12, and SEQ ID NO: 57. For example, at position one, all peptide sequences comprise a G amino acid residue; at position two, all peptide sequences comprise an S amino acid residue; at position three, all peptide sequences comprise either G, Q, or V amino acid, or null; and at position four, all peptide sequences comprise V, R, or K amino acid, or null. […] SEQ ID NO: 167 and SEQ ID NO: 168 describe sequences of peptides that are particularly resistant to reduction, pepsin, 75° C., and 100° C., which would typically degrade peptides. […] Additionally, SEQ ID NO: 169 describes sequences of peptides that are also particularly resistant to trypsin.

[2] = Resistance to reduction by DTT, RP-HPLC; type: physicochemical; settings: 10 mM DTT in PBS, room temperature, 30 minutes; HPLC peak vs untreated peptide
Method in brief: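 Peptide (12.5 μg from a 2 mg/ml stock, or 0.015 mM final in PBS) was held 30 min at room temperature with or without 10 mM DTT. Reduced and non-reduced forms were compared by C-18 RP-HPLC using a 5–45% acetonitrile/0.1% TFA gradient over 10 min, with detection at 214 and 280 nm.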

[3] = biological target: pepsin (Sus scrofa, UniProt P00791); test: Pepsin digestion resistance in simulated gastric fluid, RP-HPLC; type: in vitro ADME, porcine; design: purchased Sigma Aldrich P7012; settings: 500 U/ml pepsin in SGF pH 1.05, 30 minutes at 37.5° C.; HPLC peak vs untreated peptide
pepsin, sequence (P00791 60-385): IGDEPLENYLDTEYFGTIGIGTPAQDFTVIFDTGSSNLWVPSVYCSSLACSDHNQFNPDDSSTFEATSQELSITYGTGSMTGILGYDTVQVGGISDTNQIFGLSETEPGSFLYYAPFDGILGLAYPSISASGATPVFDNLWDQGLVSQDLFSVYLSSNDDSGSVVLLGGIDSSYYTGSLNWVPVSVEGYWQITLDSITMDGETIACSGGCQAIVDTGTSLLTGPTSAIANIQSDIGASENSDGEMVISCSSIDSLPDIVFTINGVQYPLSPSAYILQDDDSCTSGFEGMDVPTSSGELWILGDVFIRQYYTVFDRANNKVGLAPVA
Method in brief: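 Peptide (12.5 μg) incubated 30 min at 37.5 °C with or without 500 U/ml pepsin in simulated gastric fluid (pH 1.05; 2% NaCl in 0.7% HCl); some reactions quenched with 100 mM Tris and 10 mM DTT. Intact peptide followed by C-18 RP-HPLC (5–45% acetonitrile/0.1% TFA over 10 min) at 214 and 280 nm.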

[4] = biological target: trypsin (Sus scrofa, UniProt P00761); test: Trypsin digestion resistance of soluble peptide, RP-HPLC; type: in vitro ADME, porcine; design: purchased Sigma Aldrich 6567; settings: 500 U/ml trypsin, 30 minutes at 37.5° C.; HPLC peak vs untreated peptide
trypsin, sequence (P00761 9-231): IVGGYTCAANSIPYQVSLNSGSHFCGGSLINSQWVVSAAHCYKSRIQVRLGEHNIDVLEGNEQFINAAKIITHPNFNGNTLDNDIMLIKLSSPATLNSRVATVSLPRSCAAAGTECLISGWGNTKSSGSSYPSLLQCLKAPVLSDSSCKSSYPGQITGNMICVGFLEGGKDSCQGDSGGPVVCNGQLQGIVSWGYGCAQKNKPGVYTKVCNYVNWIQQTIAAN
Method in brief: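 12.5 μg soluble peptide digested with 500 U/ml porcine trypsin in PBS, 30 min at 37.5° C; quenched with soybean trypsin inhibitor, with or without 10 mM DTT reduction afterwards. Intact peptide assessed by C-18 RP-HPLC, 5-45% acetonitrile/0.1% TFA gradient over 10 min.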

[5] = Resistance to elevated temperature, HPLC; type: physicochemical; settings: HPLC peak vs untreated peptide; for Resistance to Temperature (75° C.): 75° C. for one hour; for Resistance to Temperature (100° C.): 100° C. for one hour
Method in brief: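 Peptides were incubated at room temperature, 70° C or 100° C for one hour in ddH2O; another protocol used 70° C, 75° C or 100° C for one hour in 0.5 mM PBS, then pelleting and analysis of the supernatant. Remaining peptide was measured by C-18 RP-HPLC, 5–45% acetonitrile/0.1% TFA over 10 min.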

Substance	combined resistance to reduction, pepsin and elevated temperatures such as 75° C. and 100° C. [1]	Resistance to DTT Reduction (10 mM) [2]	Resistance to Pepsin (500 U/ml) [3]	Resistance to Trypsin (500 U/ml) [4]	Resistance to Temperature (75° C.) [5]	Resistance to Temperature (100° C.) [5]
GSAVCNLKRCQLSCRSLGLLGKCIGDKCECVKHG [SEQ ID NO: 8]	not highly resistant					
GSQVQTNVKCQGGSCASVCRREIGVAAGKCINGKCVCYRN [SEQ ID NO: 30]	not highly resistant					
GSQIDTNVKCSGSSKCVKICIDRYNTRGAKCINGRCTCYP [SEQ ID NO: 35]	not highly resistant					
GSVVIGQRCYRSPDCYSACKKLVGKATGKCTNGRCDC [SEQ ID NO: 36]	not highly resistant					
GSQKILSNRCNNSSECIPHCIRIFGTRAAKCINRKCYCYP [SEQ ID NO: 6]	highly resistant					
GSRPTDIKCSASYQCFPVCKSRFGKTNGRCVNGLCDCF [SEQ ID NO: 10]	highly resistant					
20 (GSGHACYRNCWREGNDEETCKERC) [compound 20]		Low (A peptide classified as low indicates that the majority (over 75%) of the HPLC peak of the treated peptide disappeared as compared to the HPLC peak of the untreated peptide)	High (A peptide classified as high indicates that the majority (at least 75%) of the HPLC peak of the treated peptide is still present as compared to the HPLC peak of the untreated peptide)	High (A peptide classified as high indicates that the majority (at least 75%) of the HPLC peak of the treated peptide is still present as compared to the HPLC peak of the untreated peptide)	High (A peptide classified as high indicates that the majority (at least 75%) of the HPLC peak of the treated peptide is still present as compared to the HPLC peak of the untreated peptide)	Moderate (A peptide classified as medium indicates that about half (between 25% and 75%) of the HPLC peak of the treated peptide disappeared as compared to the HPLC peak of the untreated peptide)
11 (GSNCAGYMRECKEKLCCSGYVCSSRWKWCVLPAPWRR) [compound 11]		Low (A peptide classified as low indicates that the majority (over 75%) of the HPLC peak of the treated peptide disappeared as compared to the HPLC peak of the untreated peptide)	High (A peptide classified as high indicates that the majority (at least 75%) of the HPLC peak of the treated peptide is still present as compared to the HPLC peak of the untreated peptide)	High (A peptide classified as high indicates that the majority (at least 75%) of the HPLC peak of the treated peptide is still present as compared to the HPLC peak of the untreated peptide)	High (A peptide classified as high indicates that the majority (at least 75%) of the HPLC peak of the treated peptide is still present as compared to the HPLC peak of the untreated peptide)	Low (A peptide classified as low indicates that the majority (over 75%) of the HPLC peak of the treated peptide disappeared as compared to the HPLC peak of the untreated peptide)
52 (GSEGDCPISEAIKCVEKCKEKVEVCEPGVCKCSG) [compound 52]		Low (A peptide classified as low indicates that the majority (over 75%) of the HPLC peak of the treated peptide disappeared as compared to the HPLC peak of the untreated peptide)	High (A peptide classified as high indicates that the majority (at least 75%) of the HPLC peak of the treated peptide is still present as compared to the HPLC peak of the untreated peptide)	Low (A peptide classified as low indicates that the majority (over 75%) of the HPLC peak of the treated peptide disappeared as compared to the HPLC peak of the untreated peptide)	High (A peptide classified as high indicates that the majority (at least 75%) of the HPLC peak of the treated peptide is still present as compared to the HPLC peak of the untreated peptide)	High (A peptide classified as high indicates that the majority (at least 75%) of the HPLC peak of the treated peptide is still present as compared to the HPLC peak of the untreated peptide)
23 (GSEVIRCSGSKQCYGPCKQQTGCTNSKCMNKVCKCYGCG) [compound 23]		Low (A peptide classified as low indicates that the majority (over 75%) of the HPLC peak of the treated peptide disappeared as compared to the HPLC peak of the untreated peptide)	High (A peptide classified as high indicates that the majority (at least 75%) of the HPLC peak of the treated peptide is still present as compared to the HPLC peak of the untreated peptide)	Low (A peptide classified as low indicates that the majority (over 75%) of the HPLC peak of the treated peptide disappeared as compared to the HPLC peak of the untreated peptide)	High (A peptide classified as high indicates that the majority (at least 75%) of the HPLC peak of the treated peptide is still present as compared to the HPLC peak of the untreated peptide)	Low (A peptide classified as low indicates that the majority (over 75%) of the HPLC peak of the treated peptide disappeared as compared to the HPLC peak of the untreated peptide)
19 (GSQDKCKKVYENYPVSKCQLANQCNYDCKLDKHARSGECFYDEKRNLQCICDYCEY) [compound 19]		Low (A peptide classified as low indicates that the majority (over 75%) of the HPLC peak of the treated peptide disappeared as compared to the HPLC peak of the untreated peptide)	High (A peptide classified as high indicates that the majority (at least 75%) of the HPLC peak of the treated peptide is still present as compared to the HPLC peak of the untreated peptide)	High (A peptide classified as high indicates that the majority (at least 75%) of the HPLC peak of the treated peptide is still present as compared to the HPLC peak of the untreated peptide)	High (A peptide classified as high indicates that the majority (at least 75%) of the HPLC peak of the treated peptide is still present as compared to the HPLC peak of the untreated peptide)	Moderate (A peptide classified as medium indicates that about half (between 25% and 75%) of the HPLC peak of the treated peptide disappeared as compared to the HPLC peak of the untreated peptide)
50 (GSLFCKGGSCHFGGCPSHLIKVGSCFGFRSCCKWPWNA) [compound 50]		Low (A peptide classified as low indicates that the majority (over 75%) of the HPLC peak of the treated peptide disappeared as compared to the HPLC peak of the untreated peptide)	Low (A peptide classified as low indicates that the majority (over 75%) of the HPLC peak of the treated peptide disappeared as compared to the HPLC peak of the untreated peptide)	Low (A peptide classified as low indicates that the majority (over 75%) of the HPLC peak of the treated peptide disappeared as compared to the HPLC peak of the untreated peptide)	High (A peptide classified as high indicates that the majority (at least 75%) of the HPLC peak of the treated peptide is still present as compared to the HPLC peak of the untreated peptide)	Low (A peptide classified as low indicates that the majority (over 75%) of the HPLC peak of the treated peptide disappeared as compared to the HPLC peak of the untreated peptide)
